# ± gives the standard deviation.
# Assay: protein stability index of a GFP-peptide fusion (GPS, HEK-293T) (PSI 1-6); higher = more stable
# [1] = treatment: DMSO, c terminus: a fixed tail appended
# [2] = treatment: MLN4924 1 uM, 8 h, c terminus: a fixed tail appended
# 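Further: 24-mer peptide tiles fused after GFP, lentivirally expressed, FACS-sorted into six equal bins by GFP/DsRed ratio, decoded by Illumina sequencing, PSI is the read-weighted mean bin number.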
sequence,measurement,setting,value
RLRASFSRKPSLKGNREDSARMSA [PLEKHN1],protein stability index,[1],4.08 ± 0.21
same,protein stability index,[2],4.21 ± 0.078
SSVICNDITAYLFGFFFGRTPLIK [CDS1],protein stability index,[1],2.13 ± 1.2
same,protein stability index,[2],2.02 ± 0.082
TDGERVAEVAPEERENVAVAKLQE [SDE2],protein stability index,[1],5.59 ± 0.34
same,protein stability index,[2],5.49 ± 0.38
FTNDKIINLPVEEFNELLSKYQLS [NFE2L1],protein stability index,[1],2.85 ± 0.28
same,protein stability index,[2],2.76 ± 0.16
SQEAADTPDTRHPCSLGSSLVADY [YJU2B],protein stability index,[1],4.34 ± 0.35
same,protein stability index,[2],4.59 ± 0.21
GFLQALSLAVDKQFEERKKLAAYI [TRIP13],protein stability index,[1],3.35 ± 0.22
same,protein stability index,[2],2.54 ± 0.39
NIKPRRYLTVVFEHDAWFIFFMAA [SLC29A1],protein stability index,[1],3.1 ± 0.48
same,protein stability index,[2],2.48 ± 0.61
SGSDSGGSSSSSSSSINSPDRASG [FAM104A],protein stability index,[1],5.36 ± 0.33
same,protein stability index,[2],5.47 ± 0.11
ASWYSLSKGMQDFNYLHTNCFEIT [CPN1],protein stability index,[1],2.56 ± 0.58
same,protein stability index,[2],2.23 ± 0.4
IIDNTNLHAWEMKPYAVMVFQTEQ [N4BP2L1],protein stability index,[1],2.15 ± 0.25
same,protein stability index,[2],2.09 ± 0.18
KVVHAVDGTAENGIHPLSSSEVDE [PALM],protein stability index,[1],5.25 ± 0.11
same,protein stability index,[2],5.47 ± 0.19
AQGPNKPGYLVGRNNANGVDLNRN [CPN1],protein stability index,[1],4.33 ± 0.11
same,protein stability index,[2],4.35 ± 0.16
ASSRASENQSPSSSNYFSPRESTD [ZBTB22],protein stability index,[1],5.3 ± 0.29
same,protein stability index,[2],5.167 ± 0.043
HMVRESKIMEAESQKATRECEKSA [FAN1],protein stability index,[1],5.29 ± 0.3
same,protein stability index,[2],5.24 ± 0.14
LDTVELATYCVRTFALYKNGSSEK [PTPRD],protein stability index,[1],2.37 ± 0.042
same,protein stability index,[2],2.55 ± 0.35
EKLGSGEPSHSVKVHTVPKPGKGA [ATE1],protein stability index,[1],5.04 ± 0.23
same,protein stability index,[2],5 ± 0.22
NHGQVVSYLLKSGADKEILTTKGE [ANKRD40],protein stability index,[1],4.08 ± 0.28
same,protein stability index,[2],3.9 ± 0.26
SFSGKVFPFFAVWKKGSCLTLKG [TRIM15],protein stability index,"treatment: DMSO, c terminus: native",3.25 ± 0.88
same,protein stability index,"treatment: MLN4924 1 uM, 8 h, c terminus: native",2.92 ± 0.61
GGTDPHGYHQVPGSAAPGSPLAAD [FOXJ1],protein stability index,[1],5.11 ± 0.099
same,protein stability index,[2],5.234 ± 0.051
VLIDLWKITKVMDVRLDREHRVAG [CLPTM1],protein stability index,[1],2.49 ± 0.68
same,protein stability index,[2],2.57 ± 0.83
PAMVRISKPKTFQAYLDDCHRRYS [YPEL3],protein stability index,[1],2.96 ± 0.11
same,protein stability index,[2],2.92 ± 0.17
EAMAEKNRRDVEAWFFSKTEELNK [KRT15],protein stability index,[1],4.15 ± 0.23
same,protein stability index,[2],4.21 ± 0.25
LDSDHRELIGDYSKAFLLQTVDGK [CDC25B],protein stability index,[1],3.77 ± 0.061
same,protein stability index,[2],3.81 ± 0.2
SSALACTLPTLPAKVYVGVKQEIA [NCF4],protein stability index,[1],3.2 ± 0.2
same,protein stability index,[2],3.1 ± 0.35
MASLGPAAAGEQASGAEAEPGPAG [BTBD1],protein stability index,[1],5.55 ± 0.16
same,protein stability index,[2],5.52 ± 0.31
QSVKMKDKLKIDLLPDGRHAVVEV [TAF7L],protein stability index,[1],2.87 ± 0.32
same,protein stability index,[2],3.06 ± 0.36
CAAVLPGKPGDRNCPEFPPPDRTL [RSPH3],protein stability index,[1],4.16 ± 0.42
same,protein stability index,[2],3.76 ± 0.16
LRASGSLCGPHAKAPYLCEATHEP,protein stability index,[1],2.84 ± 0.22
same,protein stability index,[2],3.1 ± 0.27
ERLAKNLVEKGVLTTEKQNFLLFD [GOLPH3],protein stability index,[1],3.16 ± 0.52
same,protein stability index,[2],3.43 ± 0.34
TVVGLFNVRDRDSGRNGEVSLDIS [PCDHGC5],protein stability index,[1],2.83 ± 0.37
same,protein stability index,[2],3.13 ± 0.19
GLQEEPVEGFRVTLVDEGDLYNWE [CDC34],protein stability index,[1],4.26 ± 0.14
same,protein stability index,[2],4.15 ± 0.34
TGFTVNVAWNGPRMGDADYLAAWH [HDAC6],protein stability index,[1],2.43 ± 0.52
same,protein stability index,[2],2.18 ± 0.26
TGEVRTARALLEDDSDTQQVVVLV [PCDHGC5],protein stability index,[1],2.5 ± 0.39
same,protein stability index,[2],2.82 ± 0.27
SSFPPSPGPSPDVQLATLAQRVKE [AUP1],protein stability index,[1],5.1 ± 0.26
same,protein stability index,[2],5.05 ± 0.15
SGVVRIWDLRDQSVVRDLKGYPDG [TLE6],protein stability index,[1],3.3 ± 0.31
same,protein stability index,[2],3.42 ± 0.23
SWCLKRYDLEYWAFHDGQRSRLRP [TRIM14],protein stability index,[1],2.18 ± 0.25
same,protein stability index,[2],2.33 ± 0.13
DKENIYILLEYCSRRSMAHILKAR [PLK2],protein stability index,[1],2.2 ± 0.29
same,protein stability index,[2],2.55 ± 0.43
AAAAKAFKHPSIRNPVSLVVTRLV [ADAMTS4],protein stability index,[1],2.22 ± 0.49
same,protein stability index,[2],2.67 ± 0.48
QRRSMVSPNFGFMGQLLQYESEIL [DUSP5],protein stability index,[1],2.5 ± 0.29
same,protein stability index,[2],2.45 ± 0.38
VRRECWFLPTALLCAYGFFASLRP [SLC19A2],protein stability index,[1],2.95 ± 0.29
same,protein stability index,[2],2.93 ± 0.28
MGCHGFRDPFECNMCGYHSQDRYE [IKZF1],protein stability index,[1],3.2 ± 0.11
same,protein stability index,[2],3 ± 0.3
GGPPAGPGGVYAGPEPPPVYTNLS [JUNB],protein stability index,[1],4.15 ± 0.12
same,protein stability index,[2],4.56 ± 0.099
DALNRRKAQLLARVNKEHEHKLKV [TRIM9],protein stability index,[1],3.47 ± 0.11
same,protein stability index,[2],3.29 ± 0.092
RRSSLVITTKIFWGGKAETERGLS [KCNAB2],protein stability index,[1],2.09 ± 0.42
same,protein stability index,[2],2.15 ± 0.29

# Reference: the supplement of paper PMC10567573
